US20230002472A1 (NEURACLE GENETICS, published 2023)

Key:
[1] = biological target: T1, tetrameric human PD-L1 (PD-L1-streptavidin-His tag) (human, UniProt Q9NZQ7 19-238, Alexa-488 label (labelled form used in Example 3 ELISA and in all flow cytometry)); assay: ELISA, PD-1 protein coated at 200 ng/well, PD-L1 tetramer, anti-streptavidin-HRP
T1 construct: range 19-238; Expressed in HEK293F, purified on Ni-NTA; both are kept as one molecule; also called PD-L1 tetramer; tetrameric PD-L1-streptavidin; not shown: GS linker between PD-L1 and streptavidin; streptavidin fused at the C-terminal of PD-L1 to induce tetramerization; His tag
T1 sequence (Q9NZQ7 19-238): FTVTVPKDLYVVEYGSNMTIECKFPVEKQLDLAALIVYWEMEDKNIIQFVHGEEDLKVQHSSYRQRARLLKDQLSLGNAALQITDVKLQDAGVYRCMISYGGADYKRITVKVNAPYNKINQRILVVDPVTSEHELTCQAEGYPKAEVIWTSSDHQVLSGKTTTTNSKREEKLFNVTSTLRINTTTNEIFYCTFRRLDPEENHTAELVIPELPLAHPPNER

[2] = biological target: T1, tetrameric human PD-L1 …; assay: flow cytometry of E. coli spheroplasts with tetrameric PD-L1-Alexa488
[3] = biological target: T1, tetrameric human PD-L1 …; assay: flow cytometry of E. coli spheroplasts, 12.5 nM tetrameric PD-L1-Alexa488

Binder | binding result [2] | binding result [3] | also measured
GPD1-CKJ 49: glycosylated form of CKJ 49 (PD1 CKJ 49-His tag, expressed in HEK293F) (receptor, Soluble, glycosylated, purified on Ni-NTA; coated on the ELISA plate; also called pMaz-PD1 CKJ 49-His tag; not shown: His tag) LDSPDRPWNPPTLSPALLVVTEGDDATFTCSFSNTSESFVLNWYRMSPSNQTDKLAAFPEDRSQPGQDSRFRVTQLPNGRDFHMSVVRARRSDSGTYLCGAISLAPKAQIKESLRAELRVTERRAEVPTAHPSPSPKPAGQFQ | – | – | binding result [1]: binds
PD-1 variant CKJ 41Y, S36P/C69Y/L114P, displayed on E. coli (receptor, Made by QuikChange PCR on CKJ 41; not shown: NlpA signal peptide / inner membrane anchor of the pMopac12-NlpA-FLAG vector; FLAG tag) LDSPDRPWNPPTFSPALLVVTEGDNATFTCSFSNTPESFVLNWYRMSPSNQTDKLAAFPEDRSQPGQDYRFRVTQLPNGRDFHMSVVRARRNDSGTYLCGAISLAPKAQIKESPRAELRVTERRAEVPTAHPSPSPRPAGQFQ | binds | – | –
PD-1 variant No. 44 (CKJ 44), F13I/M46I/N50S/C69Y/V127A, displayed on E. coli (receptor, not shown: NlpA signal peptide / inner membrane anchor of the pMopac12-NlpA-FLAG vector; FLAG tag) LDSPDRPWNPPTISPALLVVTEGDNATFTCSFSNTSESFVLNWYRISPSSQTDKLAAFPEDRSQPGQDYRFRVTQLPNGRDFHMSVVRARRNDSGTYLCGAISLAPKAQIKESLRAELRVTERRAEAPTAHPSPSPRPAGQFQ | – | binds | –
PD-1 variant No. 49 (CKJ 49), F13L/N25D/C69S/N92S/R137K, displayed on E. coli (receptor, not shown: NlpA signal peptide / inner membrane anchor of the pMopac12-NlpA-FLAG vector; FLAG tag) LDSPDRPWNPPTLSPALLVVTEGDDATFTCSFSNTSESFVLNWYRMSPSNQTDKLAAFPEDRSQPGQDSRFRVTQLPNGRDFHMSVVRARRSDSGTYLCGAISLAPKAQIKESLRAELRVTERRAEVPTAHPSPSPKPAGQFQ | – | binds | –
PD-1 variant CKJ 41T, S36P/C69T/L114P, displayed on E. coli (receptor, also called APD1-CKJ 41T; pMopac12-NIpA-PD-1 CKJ 41T-FLAG; not shown: NlpA signal peptide / inner membrane anchor of the pMopac12-NlpA-FLAG vector; FLAG tag) LDSPDRPWNPPTFSPALLVVTEGDNATFTCSFSNTPESFVLNWYRMSPSNQTDKLAAFPEDRSQPGQDTRFRVTQLPNGRDFHMSVVRARRNDSGTYLCGAISLAPKAQIKESPRAELRVTERRAEVPTAHPSPSPRPAGQFQ | – | binds | –
PD-1 variant No. 55 (CKJ 55), N25D/C69S/N92S/A101V, displayed on E. coli (receptor, not shown: NlpA signal peptide / inner membrane anchor of the pMopac12-NlpA-FLAG vector; FLAG tag) LDSPDRPWNPPTFSPALLVVTEGDDATFTCSFSNTSESFVLNWYRMSPSNQTDKLAAFPEDRSQPGQDSRFRVTQLPNGRDFHMSVVRARRSDSGTYLCGVISLAPKAQIKESLRAELRVTERRAEVPTAHPSPSPRPAGQFQ | – | binds | –
PD-1 variant No. 78 (CKJ 78), T12S/S36P/C69S/L114P, displayed on E. coli (receptor, not shown: NlpA signal peptide / inner membrane anchor of the pMopac12-NlpA-FLAG vector; FLAG tag) LDSPDRPWNPPSFSPALLVVTEGDNATFTCSFSNTPESFVLNWYRMSPSNQTDKLAAFPEDRSQPGQDSRFRVTQLPNGRDFHMSVVRARRNDSGTYLCGAISLAPKAQIKESPRAELRVTERRAEVPTAHPSPSPRPAGQFQ | – | binds | –
PD-1 variant No. 56 (CKJ 56), S36P/C69S/N92K/L114P/H131R, displayed on E. coli (receptor, not shown: NlpA signal peptide / inner membrane anchor of the pMopac12-NlpA-FLAG vector; FLAG tag) LDSPDRPWNPPTFSPALLVVTEGDNATFTCSFSNTPESFVLNWYRMSPSNQTDKLAAFPEDRSQPGQDSRFRVTQLPNGRDFHMSVVRARRKDSGTYLCGAISLAPKAQIKESPRAELRVTERRAEVPTARPSPSPRPAGQFQ | – | binds | –
PD-1 variant No. 41 (CKJ 41), S36P/C69S/L114P, displayed on E. coli (receptor, not shown: NlpA signal peptide / inner membrane anchor of the pMopac12-NlpA-FLAG vector; FLAG tag) LDSPDRPWNPPTFSPALLVVTEGDNATFTCSFSNTPESFVLNWYRMSPSNQTDKLAAFPEDRSQPGQDSRFRVTQLPNGRDFHMSVVRARRNDSGTYLCGAISLAPKAQIKESPRAELRVTERRAEVPTAHPSPSPRPAGQFQ | binds | – | –
PD-1 variant No. 50 (CKJ 50), F13L/N25D/C69S/R88K/N92S/A125S, displayed on E. coli (receptor, not shown: NlpA signal peptide / inner membrane anchor of the pMopac12-NlpA-FLAG vector; FLAG tag) LDSPDRPWNPPTLSPALLVVTEGDDATFTCSFSNTSESFVLNWYRMSPSNQTDKLAAFPEDRSQPGQDSRFRVTQLPNGRDFHMSVVKARRSDSGTYLCGAISLAPKAQIKESLRAELRVTERRSEVPTAHPSPSPRPAGQFQ | – | binds | –
PD-1 variant No. 66 (CKJ 66), N9D/N25D/C69S/N92S/A101V, displayed on E. coli (receptor, not shown: NlpA signal peptide / inner membrane anchor of the pMopac12-NlpA-FLAG vector; FLAG tag) LDSPDRPWDPPTFSPALLVVTEGDDATFTCSFSNTSESFVLNWYRMSPSNQTDKLAAFPEDRSQPGQDSRFRVTQLPNGRDFHMSVVRARRSDSGTYLCGVISLAPKAQIKESLRAELRVTERRAEVPTAHPSPSPRPAGQFQ | – | binds | –
PD-1 variant JY101, N1S/F13I/L17M/S36P/M46I/C69T/G79R/G100V/L114P/A139L, displayed on E. coli (receptor, From the secondary library on CKJ 41T; also called APD1-JY 101; not shown: NlpA signal peptide / inner membrane anchor of the pMopac12-NlpA-FLAG vector; FLAG tag) SDSPDRPWNPPTISPAMLVVTEGDNATFTCSFSNTPESFVLNWYRISPSNQTDKLAAFPEDRSQPGQDTRFRVTQLPNRRDFHMSVVRARRNDSGTYLCVAISLAPKAQIKESPRAELRVTERRAEVPTAHPSPSPRPLGQFQ | binds | – | –
PD-1_LDSS variant, F13L/N25D/C69S/N92S, displayed on E. coli (receptor, Made by QuikChange PCR on the CKJ 49 vector; not shown: NlpA signal peptide / inner membrane anchor of the pMopac12-NlpA-FLAG vector; FLAG tag) LDSPDRPWNPPTLSPALLVVTEGDDATFTCSFSNTSESFVLNWYRMSPSNQTDKLAAFPEDRSQPGQDSRFRVTQLPNGRDFHMSVVRARRSDSGTYLCGAISLAPKAQIKESLRAELRVTERRAEVPTAHPSPSPRPAGQFQ | binds | – | –
PD-1 variant No. 52 (CKJ 52), F13I/M46I/C69Y, displayed on E. coli (receptor, not shown: NlpA signal peptide / inner membrane anchor of the pMopac12-NlpA-FLAG vector; FLAG tag) LDSPDRPWNPPTISPALLVVTEGDNATFTCSFSNTSESFVLNWYRISPSNQTDKLAAFPEDRSQPGQDYRFRVTQLPNGRDFHMSVVRARRNDSGTYLCGAISLAPKAQIKESLRAELRVTERRAEVPTAHPSPSPRPAGQFQ | – | binds | –
PD-1 variant CKJ 41G, S36P/C69G/L114P, displayed on E. coli (receptor, Made by QuikChange PCR on CKJ 41; not shown: NlpA signal peptide / inner membrane anchor of the pMopac12-NlpA-FLAG vector; FLAG tag) LDSPDRPWNPPTFSPALLVVTEGDNATFTCSFSNTPESFVLNWYRMSPSNQTDKLAAFPEDRSQPGQDGRFRVTQLPNGRDFHMSVVRARRNDSGTYLCGAISLAPKAQIKESPRAELRVTERRAEVPTAHPSPSPRPAGQFQ | binds | – | –
PD-1 variant No. 46 (CKJ 46), S36P/C69S/L114P/P132L, displayed on E. coli (receptor, not shown: NlpA signal peptide / inner membrane anchor of the pMopac12-NlpA-FLAG vector; FLAG tag) LDSPDRPWNPPTFSPALLVVTEGDNATFTCSFSNTPESFVLNWYRMSPSNQTDKLAAFPEDRSQPGQDSRFRVTQLPNGRDFHMSVVRARRNDSGTYLCGAISLAPKAQIKESPRAELRVTERRAEVPTAHLSPSPRPAGQFQ | – | binds | –
PD-1 variant No. 67 (CKJ 67), N34T/S36P/C69S/L114P, displayed on E. coli (receptor, not shown: NlpA signal peptide / inner membrane anchor of the pMopac12-NlpA-FLAG vector; FLAG tag) LDSPDRPWNPPTFSPALLVVTEGDNATFTCSFSTTPESFVLNWYRMSPSNQTDKLAAFPEDRSQPGQDSRFRVTQLPNGRDFHMSVVRARRNDSGTYLCGAISLAPKAQIKESPRAELRVTERRAEVPTAHPSPSPRPAGQFQ | – | binds | –
PD-1 variant CKJ 41A, S36P/C69A/L114P, displayed on E. coli (receptor, Made by QuikChange PCR on CKJ 41; not shown: NlpA signal peptide / inner membrane anchor of the pMopac12-NlpA-FLAG vector; FLAG tag) LDSPDRPWNPPTFSPALLVVTEGDNATFTCSFSNTPESFVLNWYRMSPSNQTDKLAAFPEDRSQPGQDARFRVTQLPNGRDFHMSVVRARRNDSGTYLCGAISLAPKAQIKESPRAELRVTERRAEVPTAHPSPSPRPAGQFQ | binds | – | –
PD-1 variant No. 45 (CKJ 45), S36P/C69S/K107N/L114P/F142L, displayed on E. coli (receptor, not shown: NlpA signal peptide / inner membrane anchor of the pMopac12-NlpA-FLAG vector; FLAG tag) LDSPDRPWNPPTFSPALLVVTEGDNATFTCSFSNTPESFVLNWYRMSPSNQTDKLAAFPEDRSQPGQDSRFRVTQLPNGRDFHMSVVRARRNDSGTYLCGAISLAPNAQIKESPRAELRVTERRAEVPTAHPSPSPRPAGQLQ | – | binds | –
